Measured values from paper PMC11239674.
Where a chain is given by its changes, count along the chain named.

How the values were obtained:
Test in all cases: MST
[1] = target: T1, AtGRP7StoE S132E;S139E (Arabidopsis thaliana) (UniProt Q03250); settings: 25 mM Tris-HCl pH 8.0, 150 mM NaCl (150 mM LiCl for Sc1 LiCl), 1 mM DTT, 0.1 mg/ml BSA; 20 nM Cy5-RNA; about 2 min incubation; temperature not stated; low values mean tight binding
T1 sequence: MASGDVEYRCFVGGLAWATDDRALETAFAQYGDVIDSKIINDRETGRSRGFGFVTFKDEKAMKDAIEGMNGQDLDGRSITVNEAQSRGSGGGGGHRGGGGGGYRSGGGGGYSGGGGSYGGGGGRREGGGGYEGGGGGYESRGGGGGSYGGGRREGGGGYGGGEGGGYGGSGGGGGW

[2] = target: T2, AtGRP7YtoE Y103E;Y111E;Y118E;Y131E;Y138E;Y148E;Y159E;Y167E (Arabidopsis thaliana) (UniProt Q03250); settings: 25 mM Tris-HCl pH 8.0, 150 mM NaCl (150 mM LiCl for Sc1 LiCl), 1 mM DTT, 0.1 mg/ml BSA; 20 nM Cy5-RNA; about 2 min incubation; temperature not stated; low values mean tight binding
T2 sequence: T1 sequence with Y103E, Y111E, Y118E, Y131E, E132S, Y138E, E139S, Y148E, Y159E, Y167E

[3] = target: T3, AtBnGRP7 (Arabidopsis thaliana / Brassica napus chimera) (UniProt Q03250); settings: 25 mM Tris-HCl pH 8.0, 150 mM NaCl (150 mM LiCl for Sc1 LiCl), 1 mM DTT, 0.1 mg/ml BSA; 20 nM Cy5-RNA; about 2 min incubation; temperature not stated; low values mean tight binding
T3 sequence: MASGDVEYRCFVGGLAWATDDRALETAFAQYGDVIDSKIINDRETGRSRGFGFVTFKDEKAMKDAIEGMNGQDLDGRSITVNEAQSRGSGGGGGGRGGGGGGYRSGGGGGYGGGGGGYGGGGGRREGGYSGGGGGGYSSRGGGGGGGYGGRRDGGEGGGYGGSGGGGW

[4] = target: T4, AtGRP7YtoG Y103G;Y111G;Y118G;Y131G;Y138G;Y148G;Y159G;Y167G (Arabidopsis thaliana) (UniProt Q03250); settings: 25 mM Tris-HCl pH 8.0, 150 mM NaCl (150 mM LiCl for Sc1 LiCl), 1 mM DTT, 0.1 mg/ml BSA; 20 nM Cy5-RNA; about 2 min incubation; temperature not stated; low values mean tight binding
T4 sequence: T1 sequence with Y103G, Y111G, Y118G, Y131G, E132S, Y138G, E139S, Y148G, Y159G, Y167G

[5] = target: T5, AtGRP7StoG S132G;S139G (Arabidopsis thaliana) (UniProt Q03250); settings: 25 mM Tris-HCl pH 8.0, 150 mM NaCl (150 mM LiCl for Sc1 LiCl), 1 mM DTT, 0.1 mg/ml BSA; 20 nM Cy5-RNA; about 2 min incubation; temperature not stated; low values mean tight binding
T5 sequence: T1 sequence with E132G, E139G

[6] = target: T6, eYFP-AtGRP7RGG (Arabidopsis thaliana) (UniProt Q03250); settings: 25 mM Tris-HCl pH 8.0, 150 mM NaCl (150 mM LiCl for Sc1 LiCl), 1 mM DTT, 0.1 mg/ml BSA; 20 nM Cy5-RNA; about 2 min incubation; temperature not stated; low values mean tight binding
T6 sequence: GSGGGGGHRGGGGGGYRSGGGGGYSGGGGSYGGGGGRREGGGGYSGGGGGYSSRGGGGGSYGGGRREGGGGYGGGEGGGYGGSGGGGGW

[7] = target: T7, AtGRP7 (Arabidopsis thaliana) (UniProt Q03250); settings: 25 mM Tris-HCl pH 8.0, 150 mM NaCl (150 mM LiCl for Sc1 LiCl), 1 mM DTT, 0.1 mg/ml BSA; 20 nM Cy5-RNA; about 2 min incubation; temperature not stated; low values mean tight binding
T7 sequence: T1 sequence with E132S, E139S

BnGRP7 (Brassica napus) [8] = target: T8, BnGRP7 (Brassica napus) (UniProt A0A078J5Z4); settings: 25 mM Tris-HCl pH 8.0, 150 mM NaCl (150 mM LiCl for Sc1 LiCl), 1 mM DTT, 0.1 mg/ml BSA; 20 nM Cy5-RNA; about 2 min incubation; temperature not stated; low values mean tight binding
T8 sequence: T3 sequence with G4P, A29S, Y31F, I35L, A61S

[9] = tested on: AtGRP7short (Arabidopsis thaliana); settings: MST: 25 mM Tris-HCl pH 8.0, 150 mM NaCl, 1 mM DTT, 0.1 mg/ml BSA; 20 nM Cy5-RNA; protein titrated from 50-75 uM; about 2 min incubation; temperature not stated
[10] = tested on: AtGRP7 (Arabidopsis thaliana); settings: MST: 25 mM Tris-HCl pH 8.0, 150 mM NaCl, 1 mM DTT, 0.1 mg/ml BSA; 20 nM Cy5-RNA; protein titrated from 50-75 uM; about 2 min incubation; temperature not stated
[11] = tested on: eYFP-AtGRP7RGG (Arabidopsis thaliana); settings: MST: 25 mM Tris-HCl pH 8.0, 150 mM NaCl, 1 mM DTT, 0.1 mg/ml BSA; 20 nM Cy5-RNA; protein titrated from 50-75 uM; about 2 min incubation; temperature not stated
BnGRP7 (Brassica napus) [12] = settings: MST: 25 mM Tris-HCl pH 8.0, 150 mM NaCl, 1 mM DTT, 0.1 mg/ml BSA; 20 nM Cy5-RNA; protein titrated from 50-75 uM; about 2 min incubation; temperature not stated
[13] = target: T7, AtGRP7 (Arabidopsis thaliana); settings: 25 mM Tris-HCl pH 8.0, 150 mM NaCl (150 mM LiCl for Sc1 LiCl), 1 mM DTT, 0.1 mg/ml BSA; 20 nM Cy5-RNA; about 2 min incubation; temperature not stated; low values mean tight binding; remark: listed apart in the source
[14] = tested on: AtBnGRP7 (Arabidopsis thaliana / Brassica napus chimera); settings: MST: 25 mM Tris-HCl pH 8.0, 150 mM NaCl, 1 mM DTT, 0.1 mg/ml BSA; 20 nM Cy5-RNA; protein titrated from 50-75 uM; about 2 min incubation; temperature not stated
[15] = tested on: AtGRP7YtoG (Arabidopsis thaliana); settings: MST: 25 mM Tris-HCl pH 8.0, 150 mM NaCl, 1 mM DTT, 0.1 mg/ml BSA; 20 nM Cy5-RNA; protein titrated from 50-75 uM; about 2 min incubation; temperature not stated
[16] = tested on: AtGRP7StoG (Arabidopsis thaliana); settings: MST: 25 mM Tris-HCl pH 8.0, 150 mM NaCl, 1 mM DTT, 0.1 mg/ml BSA; 20 nM Cy5-RNA; protein titrated from 50-75 uM; about 2 min incubation; temperature not stated
[17] = tested on: AtGRP7StoE (Arabidopsis thaliana); settings: MST: 25 mM Tris-HCl pH 8.0, 150 mM NaCl, 1 mM DTT, 0.1 mg/ml BSA; 20 nM Cy5-RNA; protein titrated from 50-75 uM; about 2 min incubation; temperature not stated
[18] = target: T9, AtGRP7short (Arabidopsis thaliana) (UniProt Q03250); settings: 25 mM Tris-HCl pH 8.0, 150 mM NaCl (150 mM LiCl for Sc1 LiCl), 1 mM DTT, 0.1 mg/ml BSA; 20 nM Cy5-RNA; about 2 min incubation; temperature not stated; low values mean tight binding
T9 sequence: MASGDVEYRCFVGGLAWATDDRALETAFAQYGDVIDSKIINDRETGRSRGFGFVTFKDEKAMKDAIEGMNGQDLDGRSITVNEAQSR

## GGAUGGCGUCCGGUGAUGUUGAGUAUCGGUGCUUCGUUGGAGGUCUAGCAUGGGCCACUGAUGACAGAGCUCUUGAGACUGCCUUCGCUCAAUACGGCGACGUUAUUGAUUCCAAGAUCAUUAACGAUCGUGAGACUGGAAGAUCAAGGGGAUUCGGAUUCGUCACCUUCAAGGAUGAGAAAGCCAUGAAGGAUGCGAUUGAGGGAAUGAACGGACAAGAUCUCGAUGGCCGUAGCAUCACUGUUAACGAGGCUCAGUCACGAGGAAGCGGUGGCGGCGGAGGCCACCGUGGAGGUGGUGGCGGUGGAUACCGCAGCGGCGGUGGUGGAGGUUACUCCGGUGGAGGUGGUAGCUACGGAGGUGGCGGCGGUAGACGCGAGGGUGGAGGAGGAUACAGCGGCGGCGGCGGCGGUUACUCCUCAAGAGGUGGUGGUGGCGGAAGCUACGGUGGUGGAAGACGUGAGGGAGGAGGAGGAUACGGUGGUGGUGAAGGAGGAGGUUACGGAGGAAGCGGUGGUGGUGGAGGAUGGUAA [AtGRP7]
[1]
  Kd: 536 nM
[2]
  Kd: 5400 nM
[3]
  Kd: 107 nM
[4]
  Kd: 7390 nM
[5]
  Kd: 1170 nM
[6]
  Kd: 1520 nM
[7]
  Kd: 182 nM
BnGRP7 (Brassica napus) [8]
  Kd: 3720 nM

## BnPARCL CDS RNA
[9]
  Kd: 4070 nM
[10]
  Kd: 99.7 nM

## AtGRP7 3'UTR fragment (7-UTR-WT)
[11]
  Kd: 31 nM
[10]
  Kd: 160 nM

## miR164
[9]
  Kd: 5930 nM
BnGRP7 (Brassica napus) [12]
  Kd: 21 nM
[10]
  Kd: 42 nM

## GCUGCGGUGUGGAAGGAGUGGUCGGGUUGCGCAGCG [Sc1 G-quadruplex RNA]
[13]
  Kd: 463 nM
[7]
  Kd: 6900 nM

## AtGRP7 CDS RNA
[11]
  Kd: 2100 nM
[10]
  Kd: 182 nM

## AtCOR15A pre-mRNA
[14]
  Kd: 741 nM
[15]
  Kd: 3750 nM
BnGRP7 (Brassica napus) [12]
  Kd: 323 nM
[16]
  Kd: 2230 nM
[10]
  Kd: 150 nM
[17]
  Kd: 738 nM

## AUUUUGUUCUGGUUCUGCUUUAGAUUUGAUGU [AtGRP7 3'UTR fragment (7-UTR-WT, 32 nt)]
[1]
  Kd: 72 nM
[2]
  Kd: 701 nM
[3]
  Kd: 18 nM
[4]
  Kd: 356 nM
[5]
  Kd: 52 nM
[6]
  Kd: 31 nM
[7]
  Kd: 158 nM
[18]
  Kd: 12200 nM
BnGRP7 (Brassica napus) [8]
  Kd: 17 nM
